Laboratory results published in patent US10413607B2, “Antibody specifically binding to ErbB3 and use thereof” (ISU ABXIS CO., LTD., priority 2015, dated 2019).

B1: 442S1: modified anti-ErbB3 antibody from lead antibody 442P (CDR mutagenesis) (antibody, V domains shown)
VH: EVQLLESGGGLVQPGGSLRLSCAASGFTFSDYDMSWVRQAPGKGLEWVSTIDLDSGSIYYADSVQGRFTISRDNSKNTLYLQMNSLRAEDTAVYYCAKDLHMGPEGPFDYWGQGTLVTVSS
VL: QSVLTQPPSASGTPGQRVTISCSGSSSNIGSNSVSWYQQLPGTAPKLLIYSDNHRPSGVPDRFSGSKSGTSASLAISGLRSEDEADYYCQGWDTSLSGHVFGGGTKLTVLG
modifications: Heavy chain variable region of antibody 442S1; Light chain variable region of antibody 442S1
B2: 451M4: modified anti-ErbB3 antibody from lead antibody 451P (CDR mutagenesis) (antibody, V domains shown)
VH: EVQLLESGGGLVQPGGSLRLSCAASGFTFSYYDMSWVRQAPGKGLEWVSAIYYDSGSIYYADSAKGRFTISRDNSKNTLYLQMNSLRAEDTAVYYCAKDRLFASDSTFDYWGQGTLVTVSS
VL: QSVLTQPPSASGTPGQRVTISCSGSPSNIGNNSVTWYQQLPGTAPKLLIYYDSHRPSGVPDRFSGSKSGTSASLAISGLRSEDEADYYCGSWDASLNGYVFGGGTKLTVLG
modifications: Heavy chain variable region of antibody 451M4; Light chain variable region of antibody 451M4
B3: 451M3: modified anti-ErbB3 antibody from lead antibody 451P (CDR mutagenesis) (antibody, V domains shown)
VH: EVQLLESGGGLVQPGGSLRLSCAASGFTFSHYDMSWVRQAPGKGLEWVSAIYYDSGSIYYADSAKGRFTISRDNSKNTLYLQMNSLRAEDTAVYYCAKDRLFASDSTFDYWGQGTLVTVSS
VL: QSVLTQPPSASGTPGQRVTISCSGSPSNIGNNSVTWYQQLPGTAPKLLIYYDSHRPSGVPDRFSGSKSGTSASLAISGLRSEDEADYYCGSWDASLNGYVFGGGTKLTVLG
modifications: Heavy chain variable region of antibody 451M3; Light chain variable region of antibody 451M3
B4: 442S6: modified anti-ErbB3 antibody from lead antibody 442P (CDR mutagenesis) (antibody, V domains shown)
VH: EVQLLESGGGLVQPGGSLRLSCAASGFTFSDYDMSWVRQAPGKGLEWVSSIYPDSGSTDYADSVQGRFTISRDNSKNTLYLQMNSLRAEDTAVYYCAKDRHMWPEGPFDYWGQGTLVTVSS
VL: QSVLTQPPSASGTPGQRVTISCSGSSSNIGSNSGSWYQQLPGTAPKLLIYADNWRPSGVPDRFSGSKSGTSASLAISGLRSEDEADYYCAAWDSSLSGYVFGGGTKLTVLG
modifications: Heavy chain variable region of antibody 442S6; Light chain variable region of antibody 442S6
B5: 472M1: modified anti-ErbB3 antibody from lead antibody 472P (CDR mutagenesis) (antibody, V domains shown)
VH: EVQLLESGGGLVQPGGSLRLSCAASGFTFSWYDLSWVRQAPGKGLEWVSGISYDGGNTYYADSVKGRFTISRDNSKNTLYLQMNSLRAEDTAVYYCARDPSWCLQDLCYYADGMDVWGQGTLVTVSS
VL: QSVLTQPPSASGTPGQRVTISCSGSSSNIGSNSVSWYQQLPGTAPKLLIYADSNRPSGVPDRFSGSKSGTSASLAISGLRSEDEADYYCGSWDYSLSGYVFGGGTKLTVLG
modifications: Heavy chain variable region of antibody 472M1; Light chain variable region of antibody 472M1
B6: 451M5: modified anti-ErbB3 antibody from lead antibody 451P (CDR mutagenesis) (antibody, V domains shown)
VH: EVQLLESGGGLVQPGGSLRLSCAASGFTFSDYDMSWVRQAPGKGLEWVSAIYYDSGSIYYADSAKGRFTISRDNSKNTLYLQMNSLRAEDTAVYYCAKDRLFESDSTFDYWGQGTLVTVSS
VL: QSVLTQPPSASGTPGQRVTISCSGSPSNIGNNSVTWYQQLPGTAPKLLIYYDSHRPSGVPDRFSGSKSGTSASLAISGLRSEDEADYYCGSWDASLNGYVFGGGTKLTVLG
modifications: Heavy chain variable region of antibody 451M5; Light chain variable region of antibody 451M5
B7: 451M2: modified anti-ErbB3 antibody from lead antibody 451P (CDR mutagenesis) (antibody, V domains shown)
VH: EVQLLESGGGLVQPGGSLRLSCAASGFTFSDYDMSWVRQAPGKGLEWVSAIYYDSGSIYYADSAKGRFTISRDNSKNTLYLQMNSLRAEDTAVYYCAKDRLFASDSTFDYWGQGTLVTVSS
VL: QSVLTQPPSASGTPGQRVTISCSGSPSNIGNNSVTWYQQLPGTAPKLLIYYDSHRPSGVPDRFSGSKSGTSASLAISGLRSEDEADYYCGSWDASLNGYVFGGGTKLTVLG
modifications: Heavy chain variable region of antibody 451M2; Light chain variable region of antibody 451M2
B8: 451M1: modified anti-ErbB3 antibody from lead antibody 451P (CDR mutagenesis) (antibody, V domains shown)
VH: EVQLLESGGGLVQPGGSLRLSCAASGFTFSDYDMSWVRQAPGKGLEWVSAIYYDSGSIYYADSAKGRFTISRDNSKNTLYLQMNSLRAEDTAVYYCAKDRLFMSDSTFDYWGQGTLVTVSS
VL: QSVLTQPPSASGTPGQRVTISCSGSPSNIGNNSVTWYQQLPGTAPKLLIYYDSHRPSGVPDRFSGSKSGTSASLAISGLRSEDEADYYCGSWDASLNGYVFGGGTKLTVLG
modifications: Heavy chain variable region of antibody 451M1; Light chain variable region of antibody 451M1
B9: 451M6: modified anti-ErbB3 antibody from lead antibody 451P (CDR mutagenesis) (antibody, V domains shown)
VH: EVQLLESGGGLVQPGGSLRLSCAASGFTFSHYDMSWVRQAPGKGLEWVSAIYYDSGSIYYADSAKGRFTISRDNSKNTLYLQMNSLRAEDTAVYYCAKDRLFESDSTFDYWGQGTLVTVSS
VL: QSVLTQPPSASGTPGQRVTISCSGSPSNIGNNSVTWYQQLPGTAPKLLIYYDSHRPSGVPDRFSGSKSGTSASLAISGLRSEDEADYYCGSWDASLNGYVFGGGTKLTVLG
modifications: Heavy chain variable region of antibody 451M6; Light chain variable region of antibody 451M6
B10: 451M7: modified anti-ErbB3 antibody from lead antibody 451P (CDR mutagenesis) (antibody, V domains shown)
VH: EVQLLESGGGLVQPGGSLRLSCAASGFTFSYYDMSWVRQAPGKGLEWVSAIYYDSGSIYYADSAKGRFTISRDNSKNTLYLQMNSLRAEDTAVYYCAKDRLFESDSTFDYWGQGTLVTVSS
VL: QSVLTQPPSASGTPGQRVTISCSGSPSNIGNNSVTWYQQLPGTAPKLLIYYDSHRPSGVPDRFSGSKSGTSASLAISGLRSEDEADYYCGSWDASLNGYVFGGGTKLTVLG
modifications: Heavy chain variable region of antibody 451M7; Light chain variable region of antibody 451M7

Key:
ZR-75-30 cells = test: Paclitaxel resistance, caspase 3/7 activity in ZR-75-30 breast cancer cells with HRG; format: cell-based; details: 100 ng/mL HRG, 10 nM Paclitaxel, 25 μg/mL 442S1, about 72 hours; FIG. 10
Method: About 1×10^4 ZR-75-30 cells (American Type Culture Collection) were inoculated onto a plate and incubated in RPMI 1640 medium (Invitrogen) including 10% (v/v) FBS at 37° C. under 5% CO2 conditions for about 24 hours. The medium was then exchanged with fresh medium (100 ng/mL HRG added) including 0.1% (v/v) FBS, and further incubation was performed at 37° C. under 5% CO2 conditions for about 24 hours. 10 nM of Paclitaxel (Bristol-Myers Squibb) and 25 μg/mL of antibody 442S1 were added to the cultured cells and incubated at 37° C. under 5% CO2 conditions for about 72 hours. The cultured cells were collected, and the activity of caspase 3/7 as an apoptotic marker was measured using a Caspase 3/7 Substrate Assay (Promega).

[1] = biological target: T1, recombinant human ErbB3 protein (Homo sapiens, UniProt P21860); test: Binding affinity of anti-ErbB3 antibody to human ErbB3 protein (Octet QK384); details: immobilized human ErbB3; for ka (association constant): binding phase about 900 seconds; for kd (dissociation constant): dissociation phase about 1200 seconds
T1 construct: purchased R&D systems
Method: In particular, the binding affinities of the anti-ErbB3 antibodies to the recombinant human ErbB3 protein (R&D systems) and the antigen-antibody interactive dynamics were measured using an Octet® QK384 system (Pall Life Sciences). After activation of carboxyl groups in 20 mM of 1-ethyl-3-(3-dimethylaminopropyl)carbodiimide hydrochloride (EDC) and 40 mM of N-hydroxysulfosuccinimide (sulfo-NHS) solution on an AR2G sensor (ForteBio), 10 μg/mL of human ErbB3 protein solution diluted with 10 mM of sodium acetate (pH 4.0) (ForteBio) was added to immobilize human ErbB3 protein onto the AR2G sensor. The AR2G sensor to which the human ErbB3 protein was immobilized was treated with 1 M of ethanolamine (ForteBio) to inactivate the remaining unreacted carboxyl groups.

[2] = system: FaDu head and neck cancer, pancreatic cancer, or lung cancer; test: Tumor growth inhibition, FaDu head and neck, pancreatic or lung cancer animal model; format: in vivo
Method: The antibody 442S1 was administered into FaDu head and neck cancer, pancreatic cancer, or lung cancer animal model, and the antibodies 442P or 472P antibodies were administered into gastric cancer animal model, in the same manner as described in Examples 3.1 to 3.3.

[3] = system: FaDu human head and neck cancer cells; test: Cetuximab resistant FaDu xenograft model; format: in vivo, NOD SCID mice; details: after Cetuximab failure; 10 mg/kg 442S1, 5 mg/kg Cetuximab, twice a week, 2 weeks; FIG. 12
Method: FaDu human head and neck cancer cells (Shanghai Institutes of Biological Sciences) were incubated in EMEM medium (Hyclone) including 10% FBS (Invitrogen), 0.01 mM NEAA (Non-Essential Amino Acid, Hyclone), and 2 mM L-glutamine (Invitrogen). About 5×10^6 FaDu cancer cells were suspended in 100 μl of PBS and then subcutaneously injected into the frank region of the female NOD SCID mice (HFK Bio-Technology Co., Ltd.). Weights of the mice were measured twice a week, and tumor volume was calculated using the equation of “0.5 a×b^2”, where a and b were the long and short diameters of the tumor, respectively. When the tumor volume reached about 165 mm^3 after 8 days from the inoculation of the cancer cells, the mice were randomly selected. […] Tumor volumes were measured twice a week.

Molecule	activity of caspase 3/7 (ZR-75-30 cells)	ka (association constant) [1] [M⁻¹ s⁻¹]	kd (dissociation constant) [1] [s⁻¹]	tumor volume relative to negative control group [2]	tumor suppression effect compared with Cetuximab alone [3]
CC(=O)O[C@H]1C(=O)[C@@]2(C)[C@H]([C@H](OC(=O)c3ccccc3)[C@]3(O)C[C@H](OC(=O)[C@H](O)[C@@H](NC(=O)c4ccccc4)c4ccccc4)C(C)=C1C3(C)C)[C@]1(OC(C)=O)CO[C@@H]1C[C@@H]2O [Paclitaxel]	reduced	–	–	–	–
B1	–	522000	3.94e-07	tumor volume was reduced	significant tumor suppression effect
B2	–	2.01e+06	1.23e-05	–	–
B3	–	1.87e+06	2.3e-07	–	–
B4	–	872000	<1e-07	–	–
B5	–	1.39e+06	1.74e-05	–	–
B6	–	1.52e+06	3.29e-05	–	–
B7	–	1.24e+06	1.56e-05	–	–
B8	–	1.24e+06	3.08e-05	–	–
B9	–	1.2e+06	4.17e-06	–	–
B10	–	1.35e+06	6.63e-06	–	–
